Measurements from the supplement of paper PMC9170038.

System: MS2 coat protein
Assay: apparent KD of MS2 coat protein; designed switch direction (-1 OFF switch, 1 ON switch): -1; higher = weaker reporter binding
How it was run: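 The apparent KD reported per design is the median over clusters of curve fits to normalised cluster fluorescence. The RNA switches were transcribed on Illumina chips by stalled E. coli RNA polymerase. SNAP-549-labelled MS2 coat protein was titrated from 0.7 or 1.5 nM, doubling up to 3 µM, in Tris-HCl pH 7.5 buffer containing KCl, MgCl2, BSA, DTT, tRNA and Tween-20, with no input, 200 uM small-molecule ligand, or an oligonucleotide input.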

[1] = Eterna round: R95, input ligand: microRNA oligo, concentration not stated
[2] = Eterna round: R95, input ligand: FMN 200 uM
[3] = Eterna round: R95, input ligand: none
[4] = input ligand: microRNA oligo, concentration not stated

| Sequence | apparent KD of MS2 coat protein (input ligand: FMN 200 uM) [nM] | apparent KD of MS2 coat protein (input ligand: none) [nM] | apparent KD of MS2 coat protein [1] [nM] | apparent KD of MS2 coat protein [2] [nM] | apparent KD of MS2 coat protein [3] [nM] | apparent KD of MS2 coat protein [4] [nM] |
| --- | --- | --- | --- | --- | --- | --- |
| AGGGACUAAGGAUAUACUUAGGAGAUAAACGACUGGUGAACACUUGAGGAUCACCCAAGUAGAAGGUAGUCAAA [Enonsoor] (Eterna round: R97, puzzle: Exclusion 2) | 135 | 30.4 |  |  |  |  |
| AGUGCGUAUGUGAGGAUAUGCUGGUCCUUGGAUCGGCAGAAGGCACAUGAGGAUCACCCAUGUGGUGUCGUACU [salish99_Bmod_ex4_084] (puzzle: Brourd's mod of Exclusion 4) |  |  | 280 |  |  |  |
| GGUCGGCGAGGAUAUACAUGAGGAUCACCCAUGUGAUAGAUUGCACGCGUACGUGUAUGUAGAAGGCGCUGACG [JL-ex3-3.30 salish99 mod] (puzzle: Exclusion 3) |  |  | 29.6 | 811 | 32.8 |  |
| GUCACGUAAGGAUAUCAUUAGUUGGACAUGAGGAUCACCCAUGUGAGACUAACUCCGGCGUGAGAAGGUGCGUUAA [Arorza] (puzzle: Exclusion 5) |  |  | 12 |  |  |  |
| GCUGGUCGAGGAUAUGCAUUCGUGCUUCGGCACGUAAGGUCACAUGAGGAUCACCCAUGUAGAAGGUGACCAGC [E2/6-B1] (Eterna round: R97, puzzle: Exclusion 2) | 23.9 | 17.8 |  |  |  |  |
| CGUGACUGAGGAUAUCUAUGGUAUCACAUGAGGAUCACCCAUGUCCAGCGAAAGCUGGAGGGAGAAGGCAGUCACG [Fiskers Ex 5 - 32] (puzzle: Exclusion 5) |  |  | 186 | 117 | 250 |  |
| AGAAGUAGGAACCGAUCCUACAUGAGGAUCACCCAUGUAGCAAGACGUGCACGCGAAGCUCGUCAGACUACCAGAUG [salish99_TOv1_r3_021] (puzzle: Sensor v3, turn-off variant 1) |  |  | 399 | 558 | 531 |  |
| UCCACAUGAGGAUCACCCAUGUAAGGUGAGUAAAAGAAGAGGCAGGAUAUUGAAGCGACCUCGCCCAAGAAGGGCCUCACCAAA [Eternabot solution 11] (Eterna round: R96, puzzle: Exclusion NG 3) | 72.2 | 60.6 |  |  |  | 44.8 |
| AUUUAGAGAGGAUAUAUAUUUUAAAACAUGAGGAUCACCCAUGUAAUUUUAUGGGAGUAAAUAGAAGGCUCAUUUA [JMFs Solution 2] (puzzle: Exclusion 5) |  |  | 52.8 | 54.3 | 53.1 |  |
| AAGUAGACGGUGAGGAUAUAGGUGGAAUGACCCAUUUAGAAGGUACAUGAGGAUCACCCAUGUGGGUAACGUCG [Brourd's EX4 #28] (Eterna round: R97, puzzle: Brourd's mod of Exclusion 4) | 156 | 166 |  |  |  |  |
| GAUCCACAUGAGGAUCACCCAUGUUAGGAUAUUCAGCCUUGGUCACGGGAGUCAGGGCGGAGAAGGAACCCUUU [Eternabot (L2) Solution 16] (Eterna round: R97, puzzle: Exclusion 1) | 14.4 | 13 |  |  |  |  |
| UUUCUUGGGCAAGGAUAUCCUGUGCGGUUCCGGCUCGUGUCUGUCACAUGAGGAUCACCCAUGUGGGAGAAGGUGCCUGCGGUC [Design 82] (Eterna round: R96, puzzle: Exclusion NG 2) | 14.4 | 14.9 |  |  |  | 11.2 |
| GGAAGAAUGAGUAGUCCUCAUUGAAGAGAAUAGUAAGAAACAUGAGGAUCACCCAUGUAAGAACAAGCUUUUGCUCA [JR_Sv3TOV2_Sub003] (puzzle: Sensor v3, turn-off variant 2) |  |  | 85 | 227 | 179 |  |
| UUCAUGUGAGGAUAUUAGUAGUAAAUGAAUAAAAUUAUUACUGAGAAGGUACAUGAGGAUCACCCAUGUUCCUU [Mat - Exclusion 4 - Eli Mod - D21] (Eterna round: R97, puzzle: Exclusion 4) | 20.1 | 14.6 |  |  |  |  |
| CUUAGACAUGAGGAUCACCCAUGUGAGGAUAUGAAAUUAAUUAAUUAUUAAUUAUUAAUCAGAAGGCACAUAUG [Mat - Mod of Hyphema D38] (puzzle: Exclusion 1) |  |  | 43.6 | 79.8 | 41.3 |  |
| AGGUCACAUGAGGAUCACCCAUGUCAGGAUAUCGUCACUGGAGCCUCGGCUCCAGUGACGAGAAGGGAUAAUUA [E1/8-A2] (Eterna round: R97, puzzle: Exclusion 1) | 75.3 | 50.5 |  |  |  |  |
| CAGUACUGAGGAUAUACAUGAGGAUCACCCAUGUGUGUGAGAAUUGUAUGAAUGUUAUGUAGAAGGCGGUGCUG [JR_Ex3_Sub033] (Eterna round: R97, puzzle: Exclusion 3) | 143 | 765 |  |  |  |  |

| Sequence | apparent KD of MS2 coat protein (input ligand: FMN 200 uM) [nM] | apparent KD of MS2 coat protein (input ligand: none) [nM] | apparent KD of MS2 coat protein [1] [nM] | apparent KD of MS2 coat protein [2] [nM] | apparent KD of MS2 coat protein [3] [nM] | apparent KD of MS2 coat protein [4] [nM] |
| --- | --- | --- | --- | --- | --- | --- |
| CGCGCCUUUGUCAGGAUAUUCGGACGAGCCCGGCCGGAGAAGGGACUUGAGGAUCACCCAAGUGACGCGAAGAC [Anrearra] (Eterna round: R97, puzzle: Brourd's mod of Exclusion 4) | 35.1 | 31.9 |  |  |  |  |
| GGAUAAAAGUGAGGAUAUGAGGAGAGAGAGAGAUCAGAAGGCACACAUGAGGAUCACCCAUGUGAGUUCUCGAUAAGAAACACG [Prohibition 55 - Jieux - Exclusion NG 1] (Eterna round: R96, puzzle: Exclusion NG 1) | 14.3 | 15.9 |  |  |  | 13.2 |
| CAGUACUGAGGAUAUACAUGAGGAUCACCCAUGUGUUCCAGCUAGGAAACUUGCAAAAGUAGAAGGCAGUACUG [salish99_ex3_r3_093x] (puzzle: Exclusion 3) |  |  | 11.9 |  |  |  |
| CAAUAACAAGCGAGAUCCUACAUGAGGAUCACCCAUGUGCUCGUCUUAUAAAGUACUAUCACGAAAGUGAUAGUACA [Mat - Sensor v3 - turn-off var 1 - Eli Mod - D63] (puzzle: Sensor v3, turn-off variant 1) |  |  | 34 | 19.6 | 14.9 |  |
| CAGUACUGAGGAUAUACAUGAGGAUCACCCAUGUGUCCCGGCUAGGAAACUAGCAAAAGUAGAAGGCAGUACUG [Fiskers Ex 3 828 mod 2] (puzzle: Exclusion 3) |  |  | 25.1 |  |  |  |
| AUAAAGUGAGGAUAUCCAAUAUAUGACAUGAGGAUCACCCAUGUUUCCACUCGUACCUCCGGAGAAGGCACAAUUU [Ex5 #63] (Eterna round: R97, puzzle: Exclusion 5) | 24.5 | 29.2 |  |  |  |  |
| AAUUAAUAUCAGGAUAUGACUUUCGAUAUUUAGUCAGAAGGGAUGACAUGAGGAUCACCCAUGUGAUCAAUUAA [JR_Ex6_Sub027] (Eterna round: R97, puzzle: Exclusion 6) | 101 | 37.7 |  |  |  |  |
| AACGUGGCAAAGGAUAUCCACACGGCAAAGCCGGGAGAAGGUUGCACAUGAGGAUCACCCAUGUGAACCAAACA [Onsozamati] (puzzle: Exclusion 6) |  |  | 13.6 |  |  |  |
| AGUCGGUCAGGAUAUGCAUACGUAGACAUGAGGAUCACCCAUGUGACGUGGGCCUGGUGUGUAGAAGGGACGAGCA [EX5 #82] (Eterna round: R97, puzzle: Exclusion 5) | 32.6 | 17.6 |  |  |  |  |
| AACCCUCGUCAAGGAUAUACAUAGAAAAGCUUGGUAGAAGGUGACAUGAGGAUCACCCAUGUAAAAGGCCUGUCCAUUCAGGCC [Isonce] (Eterna round: R96, puzzle: Exclusion NG 1) | 96.4 | 78.1 |  |  |  | 67.8 |
| CCGGUUUAGGAGGAUAUAGGAGUCGAUAGACACCUAGAAGGCCUAACAUGAGGAUCACCCAUGUGACCUUCCGG [Mod of Eli 30 - Jieux - Exclusion 6] (Eterna round: R97, puzzle: Exclusion 6) | 234 | 76 |  |  |  |  |
| UUGGUUGUGGUAGGAUAUCCGUUGGAAACUGUUGGAGAAGGACCACAGUCACUGGGUCCUUCUUUGGUGGAGUGGAAGAACCAU [pwkr exNG1 F6.17] (Eterna round: R96, puzzle: Exclusion NG 1) | 131 | 167 |  |  |  | 192 |
| UUGUUAUAUGAAGGAUAUACUUAACAUGAGGAUCACCCAUGUGGUGUUGUGAGUGAGUGAGUUUAGUAGAAGGUCAAUUAUUUU [JMF's solution 29] (Eterna round: R96, puzzle: Exclusion NG 2) | 1340 | 492 |  |  |  | 380 |
| CUGCUGGAGCUUUGCUUUGGUCGUACAUGAGGAUCACCCAUGUAGGAUAUGGUAGGCUUUGCUUACUAGAAGGAUAGAGUGGUC [salish99_ExNG3_r04_608] (Eterna round: R96, puzzle: Exclusion NG 3) | 160 | 86.4 |  |  |  | 76.4 |
| UAAACAAGCUAAAGAUCCCACAUGAGGAUCACCCAUGUGCUCGUCUUGUAACGUACUGUGACGAAAGUCACGGUACG [JL TOV1 3.11] (Eterna round: R97, puzzle: Sensor, turn-off variant 1) | 19.1 | 22.8 |  |  |  |  |
| GCACCGUCAGGAUAUACAUGAGGAUCACCCAUGUGACCACCACUGUUCAUGACGCAUUGUAGAAGGGACGGAAA [Eternabot (L2) Solution 47] (Eterna round: R97, puzzle: Exclusion 3) | 250 | 54.7 |  |  |  |  |
| UGAGUGCUGCGAGGAUAUACAUGAGGAUCACCCAUGUGGAUGUCUGAGGCAAAGCCUCAGACAAUGUAGAAGGCGCAGUACUCU [Mat - Exclusion NG 2 - Mod of JL - D55] (Eterna round: R96, puzzle: Exclusion NG 2) | 96.1 | 25.2 |  |  |  | 16.6 |
